Patent US12551583B2, “Radiolabeled ligands for targeted PET/SPECT imaging and methods of their use” (MEMORIAL SLOAN KETTERING CANCER CENTER, priority 2016, dated 2026)

Assays:
in vivo = details: female, BALB/c, mouse, iv, 50 uCi, total radioactivity, 4T1 tumoral uptake
Description: (§1) 4T1 orthotopic BALB/c mouse model. The cells were removed from the flasks, concentrated, and resuspended in minimal media for cell counting. The cells were then diluted to contain approximately 1 million cells in 30 μL of media (for orthotopic allografts). Following an MSKCC Institutional Animal Care and Use Committee approved protocol, 8-10 week old BALB/c mice (Charles River Laboratories, Wilmington, MA) were surgically implanted with one million 4T1 cancer cells into the first or the last mammary fat pad of the right side of the animal using aseptic surgical techniques and sterile staple closures while the mice were under anesthetic. Additionally, mice were given injections of meloxicam (24 h pain killer) in the scruff and bupivacaine intradermally prior to surgical incisions. One day post surgery, the mice were again given meloxicam and checked to ensure that the closure was healing. Two and three days post surgery, the mice were checked to ensure that the animals were healthy and recovering well from the surgery. Five to seven days post surgery, the staples were removed. Five to nine days post surgery, the mice were injected with 50-75 μCi (0.9-0.4 nmol) of the respective radiopharmaceutical for in vivo biodistribution or 500-600 μCi (9-11 nmol) for in vivo imaging. The mice receiving ^64Cu-NOTA-pHLIP were sacrificed at 1, 2, 4, 12, 24, 36, and 48 h; the mice receiving [^18F]—AlF-NOTA-pHLIP were sacrificed at 0.5, 1, 2, 4, 6 and 8 h. The 4T1 tumors in this study were purposely used 5-9 days after inoculation to ensure lower tumoral pH. Animal models. Animal studies were conducted according to MSKCC IACUC-approved animal protocol. 4T1 (orthotopic breast cancer allografts of 1×10^6 cells surgically implanted in the mammary fat pad) and B16-F10 (orthotopic melanoma allografts of 1×10^5 cells injected intradermally on the shoulder) tumors were orthotopically inoculated in media in female BALB/c and C57Bl/6 mice (Charles River Laboratories (CRL)), respectively. Additionally, PC3 (3×10^6 cells) or LNCaP (3-6×10^6 cells) tumors were subcutaneously xenografted on the shoulder of athymic nude male mice (CRL). Mice were used once tumor volumes were approximately 90-300 mm^3. In vivo animal PET imaging and biodistribution. Mice were injected with radiolabeled NOTA-pHLIP derivatives i.v. (500-700 μCi/mouse for PET or SPECT imaging studies and 25-100 μCi/mouse for biodistribution studies). All injections were less than 200 μL with <10% EtOH in sterile PBS. PET images were obtained with the mice under anesthesia in an Inveon PET-CT or microPET Focus 120 (Siemens) at 0.5-48 h p.i. All images were analyzed using ASIPro VM (Concorde Microsystems). SPECT images were obtained with the mice under anesthesia in a NanoSPECT/CT Plus at 4-24 h p.i. All SPECT images were reconstructed using HiSPECT and analyzed using InVivoScope. Dissections for ex vivo biodistribution were performed on mice after CO2 asphyxiation or cervical dislocation while anesthetized at reported time points. Weight of the syringe prior to injection and after injection was used to determine the mass of injectate. Activity of the syringe prior to injection and after injection was used to determine the percent of injectate administered. The mass injected was corrected by the percent of radioactivity injected. Four to five aliquots (10 μL) were weighed and counted as internal standards for each study. All of the collected organs were counted using an automatic gamma counter (Wizard 3″, PerkinElmer, Waltham, MA). The total injected dose was found as the mass injected dose×fraction radioactivity injected×internal standard average counts/g. The percent injected dose (% ID) was determined as the counts for the tissue×100/total injected dose. The % ID/g was calculated as the % ID/tissue weight. The average and standard deviation of the % ID and % ID/g was determined using normal methods (n−1) for each set of mice.

[1] = system: LNCaP tumor-bearing male nude mice; details: mouse, in vivo
Description: (§2) LNCaP shoulder nude mouse xenografts. The cells were removed from the flasks, concentrated, and resuspended in minimal media for cell counting. The cells were then diluted to contain approximately 3-6 million cells in 150 μL of 1:1 media and matrigel (or shoulder xenografts). Following an MSKCC Institutional Animal Care and Use Committee approved protocol, 150 μL of the cell suspension was injected subcutaneously in 6-8 week old nude male mice (CRL). Mice were used in studies at 3-8 weeks post inoculation. The mice were injected with 50-75 μCi (0.9-0.4 nmol) of the respective radiopharmaceutical for in vivo biodistribution or 500-600 μCi (9-11 nmol) for in vivo imaging. […]
(§3) In vivo animal PET imaging and biodistribution. […] All images were analyzed using ASIPro VM (Concorde Microsystems). […] All SPECT images were reconstructed using HiSPECT and analyzed using InVivoScope. […] The mass injected was corrected by the percent of radioactivity injected. Four to five aliquots (10 μL) were weighed and counted as internal standards for each study. All of the collected organs were counted using an automatic gamma counter (Wizard 3″, PerkinElmer, Waltham, MA). The total injected dose was found as the mass injected dose×fraction radioactivity injected×internal standard average counts/g. The percent injected dose (% ID) was determined as the counts for the tissue×100/total injected dose. […]

[2] = system: PC3 tumor-bearing male nude mice; details: mouse, in vivo
Description: as §2, with “PC3” for “LNCaP”, “3” for “3-6”, “(for” for “(or”, “6-9” for “6-8”, “3” for “3-8”
as §3

[3] = system: 4T1 orthotopic tumor-bearing BALB/c mice; test: in vivo; details: mouse
Description: as §1

tumor = details: in vivo; cited from earlier work

SMILES: CC(C)C[C@@H](NC(=O)[C@@H](CC(C)C)NC(=O)[C@@H](CC(=O)O)NC(=O)[C@@H](CC(C)C)NC(=O)[C@@H](CC(C)C)NC(=O)[C@@H](CC(C)C)NC(=O)[C@H](NC(=O)[C@@H](CC(=O)O)NC(=O)[C@H](NC(=O)[C@H]1CCCN1C(=O)[C@@H](Cc1ccccc1)NC(=O)[C@@H](CC(C)C)NC(=O)[C@@H](CC(C)C)NC(=O)[C@@H](CC(=O)O)NC(=O)[C@@H](CC(C)C)NC(=O)[C@@H](Cc1ccc(O)cc1)NC(=O)[C@@H](C)NC(=O)[C@@H](CCCNC(=N)N)NC(=O)[C@@H](Cc1c[nH]c2ccccc12)NC(=O)[C@H]1CCCN1C(=O)[C@@H](CC(N)=O)NC(=O)[C@@H](CCC(N)=O)NC(=O)[C@@H](CC(=O)O)NC(=O)[C@@H](CC(=O)O)NC(=O)[C@@H](CSC1CC(=O)N(CCNC(=O)CN2CCN(CC(=O)O)CCN(CC(=O)O)CC2)C1=O)NC(=O)[C@@H](C)N)[C@H](C)O)[C@H](C)O)C(=O)N[C@H](Cc1c[nH]c2ccccc12)C(=O)O (single isomer, unassigned) [^64Cu-NO2A-cysVar3, metal not drawn]
- tissue uptake at 24 h (in vivo): 19.2 ± 1.8 %ID/g
- tumor:bone ratio [1]: 4.2±1.7
- tumor:muscle ratio [1]: 6±2
- tumor:bone ratio [2]: 2.7±0.6
- tumor:muscle ratio [2]: 7.4±1.3

SMILES: CC(C)C[C@@H](NC(=O)[C@@H](CCC(=O)O)NC(=O)[C@@H](CC(C)C)NC(=O)[C@@H](CC(C)C)NC(=O)[C@@H](CC(C)C)NC(=O)[C@H](NC(=O)[C@@H](CCC(=O)O)NC(=O)[C@H](NC(=O)[C@H]1CCCN1C(=O)[C@@H](Cc1ccccc1)NC(=O)[C@@H](CC(C)C)NC(=O)[C@@H](Cc1c[nH]c2ccccc12)NC(=O)[C@@H](CCC(=O)O)NC(=O)[C@@H](CC(C)C)NC(=O)[C@@H](Cc1ccc(O)cc1)NC(=O)[C@@H](CCCNC(=N)N)NC(=O)[C@@H](C)NC(=O)[C@@H](Cc1c[nH]c2ccccc12)NC(=O)[C@H]1CCCN1C(=O)[C@@H](CC(N)=O)NC(=O)[C@@H](CCC(N)=O)NC(=O)[C@@H](CCC(=O)O)NC(=O)[C@@H](CCC(=O)O)NC(=O)[C@@H](CS)NC(=O)[C@@H](C)NC(=S)Nc1ccc(CC2CN(CC(=O)O)CCN(CC(=O)O)CCN2CC(=O)O)cc1)[C@H](C)O)[C@H](C)O)C(=O)O (single isomer, unassigned) [^64Cu-NOTA-Var7, metal not drawn]
- kidneys-to-large intestine ratio [3]: 0.32±0.07
- biodistribution, Blood ([3]; iv, 4 h): 0.833 ± 0.068 % ID/g
- biodistribution, Bone ([3]; iv, 4 h): 0.229 ± 0.093 % ID/g
- biodistribution, Brain ([3]; iv, 4 h): 0.042 ± 0.004 % ID/g
- biodistribution, Heart ([3]; iv, 4 h): 0.35 ± 0.04 % ID/g
- biodistribution, Kidneys ([3]; iv, 4 h): 6.790 ± 0.461 % ID/g
- biodistribution, L. intestine ([3]; iv, 4 h): 7.78 ± 0.61 % ID/g
- biodistribution, Liver ([3]; iv, 4 h): 0.739 ± 0.041 % ID/g
- biodistribution, Lungs ([3]; iv, 4 h): 0.996 ± 0.066 % ID/g
- biodistribution, Muscle ([3]; iv, 4 h): 0.118 ± 0.025 % ID/g
- biodistribution, Pancreas ([3]; iv, 4 h): 0.198 ± 0.043 % ID/g
- biodistribution, S. intestine ([3]; iv, 4 h): 0.307 ± 0.077 % ID/g
- biodistribution, Skin ([3]; iv, 4 h): 0.563 ± 0.145 % ID/g
- biodistribution, Spleen ([3]; iv, 4 h): 0.279 ± 0.016 % ID/g
- biodistribution, Stomach ([3]; iv, 4 h): 0.300 ± 0.076 % ID/g
- biodistribution, Tumor (4T1 tumoral uptake) ([3]; iv, 4 h): 0.546 ± 0.075 % ID/g
- overall tumor uptake (tumor): 1.36±0.43 % ID/g
